The values that follow come from US20220177835A1, “METHODS OF GENERATING AND ISOLATING MIDBRAIN DOPAMINE NEURONS” (MEMORIAL SLOAN-KETTERING CANCER CENTER, priority 2019, published 2022).

One test deals with rodent GSK3β homologs. The conditions noted are these: cited from earlier work.
Test [1] has as its system stem-cell-derived midbrain DA neurons and precursors. Nature of the test: Marker expression in stem-cell-derived mDA differentiation under Wnt-Boost protocol with added FGF. Format: cell-based, human. From the text:
Midbrain DA neurons and precursors thereof were derived from stem cells under a Wnt-Boost protocol previously disclosed (the “7.5 M bump protocol (modification of GMP V2B)” protocol disclosed in International Publication No. WO 2016/196661, which is incorporated by reference in its entirety), which is referred to as “Wnt-Boost protocol” or “Boost protocol” hereinafter. It was discovered that EN1 expression was decreased starting from day 11 of the differentiation with Wnt-Boost protocol (see FIG. 1). Maintaining EN1 expression in the differentiated cells is important to generate mature and functional midbrain DA neurons. Thus, to maintain EN1 expression, the present example tested adding FGF8b treatment to the Wnt-Boost protocol at a late time of differentiation (see FIG. 2). Cells were contacted with FGF8b from day 9 to day 16, from day 10 to day 16, from day 11 to day 16, from day 12 to day 16, from day 13 to day 16, from day 14 to day 16, or from day 15 to day 16, in addition to the Wnt-Boost protocol, were tested. […] EN1 positive cells also expressed FOXA2 and LMX1A. […] SIX1 immuno-staining of the cells on day 30 of differentiation confirmed the mRNA results (see FIG. 5).
FGF8b, FGF17, and FGF18 were tested by being added them to the cell culture from day 12 to day 16 at a concentration of 100 ng/ml under the WNT-Boost protocol.

The subject of test [2] is NURR1:GFP hPSC derived mDAs. Description: mRNA expression in NURR1:GFP sorted mDAs (WNT-Boost vs WNT-Boost+FGF18). It is filed as cell-based, human. The conditions noted are these: WNT-Boost+FGF18 (day 12-day 16) vs WNT-Boost. On the procedure:
NURR1:GFP hPSCs were then cultured under WNT-Boost and WNT-boost+FGF18 (day 12-day 16) protocols. NURR1:GFP positive cells were isolated on day 25 of differentiation followed by continuous culturing until day 40. On day 40 of differentiation, these midbrain DA neurons expressed high TH along with FOXA2 (see FIG. 12).
(§1) These sorted cells were transplanted to immuno-deficient mice.

For test [3], the system named is MEL1 hPSC derived CD49e weak mDAs. Description: mRNA expression in CD49e sorted cells (WNT-Boost vs WNT-boost+FGF18). The note with it: WNT-boost+FGF18 (day 12-day 16) vs WNT-Boost. Format: cell-based, human. On the procedure: CD49e marker was tested in another hPSC line MEL1 for purifying midbrain DA neuron. Substantially pure mDA morphology was discovered in cells sorted with CD49e (Negative and/or weak expression) on day 25 of differentiation and continuously cultured for another 15 days (day 40 of differentiation) under the WNT-boost protocol and the WNT-boost+FGF18 (day 12-day 16) protocol (see FIGS. 19-20). These sorted mDAs had high TH immune-staining (see FIG. 21).

Test [4] relates to grafted differentiated cells in mouse. Nature of the test: In vivo graft of differentiated cells (WNT-boost vs WNT-boost+FGF18) into intact mouse. From the text:
The in vivo survival of differentiated cells generated from WNT-boost+FGF18 protocol was examined. Cells generated from WNT-boost and WNT-boost+FGF18 protocols were grafted into intact mouse […].

In test [5] the test system is grafted NURR1:GFP sorted mDAs. Nature of the test: Transplantation of NURR1:GFP sorted mDAs to immuno-deficient mice. It is filed as in vivo, mouse.
Source text: as §1

`Cc1c[nH]c(-c2cnc(NCCNc3ccc(C#N)cn3)nc2-c2ccc(Cl)cc2Cl)n1` [CHIR99021, 6-(2-(4-(2,4-dichlorophenyl)-5-(4-methyl-1H-imidazol-2-yl)pyrimidin-2-ylamino)ethylamino)nicotinonitrile]: the “IC50 values against rodent GSK3β homologs” value in the test with rodent GSK3β homologs is given as “nanomolar”.

B1: FGF18: FGF activator; member of the FGF8 subfamily of secreted signaling proteins (protein, UniProt O76093 28-207, looked up)
Fibroblast growth factor 18: EENVDFRIHVENQTRARDDVSRKQLRLYQLYSRTSGKHIQVLGRRISARGEDGDKYAQLLVETDTFGSQVRIKGKETEFYLCMNRKGKLVGKPDGTSKECVFIEKVLENNYTALMSAKYSGWYVGFTKKGRPRKGPKTRENQQDVHFMKRYPKGQPELQKPFKYTTVTKRSRRIRPTHPA
Regarding B1, in test [1] (day 16 of differentiation, 100 ng/ml from day 12 to day 16, compared with FGF8b), the “mRNA expression level of SMA” value was “reduced mRNA expression level of SMA”. Besides, the “EN1 protein expression (immunostaining)” value in test [1] (day 16 of differentiation, FGF added from day 9-15 to day 16 to Wnt-Boost protocol) is “highly maintained in a FGF18 contacting duration dependent manner”. In addition, the “EN1 expression at the mature stage of differentiation” value in test [1] (day 27 and day 40 (FIG. 8)) is “still highly maintained”. In addition, the “expression levels of SMA1 and SIX1” value in test [1] (mature stage, FGF18 vs FGF8b treated cells) is “less expression levels of SMA1 and SIX1 than FGF8b treated cells”. Further, the “expression level of PITX2” value in test [1] (mature stage, compared to cells differentiated by the WNT-Boost protocol) is “reduced expression level of PITX2”. Further, the “mRNA expression level of EN1” value in test [2] is listed as “higher expression level of EN1”. For the same molecule, in test [3], the “mRNA expression level of EN1” value was “higher expression level of EN1” and the “mRNA expression level of PITX2” value is on record as “lower expression level of PITX2”. In addition, in test [4] (1 month post grafting, WNT-boost+FGF18 vs WNT-boost), the “striatal innervation with fibers” value is given as “better striatal innervation”. The “maintenance of EN1 expression in vivo” value in test [4] (cells from WNT-boost+FGF18 protocol vs WNT-boost protocol, grafted) is “improved maintenance of EN1 expression in vivo”. Besides, the “neurite outgrowth from grafted region” value in test [5] (FGF18 treated cells (WNT-Boost+FGF18 protocol) vs WNT-Boost) is on record as “better neurite outgrowth from grafted region”. Also, in test [5] (sorted mDAs from WNT-Boost+FGF18 (day 12-day 16) protocol), the “cell survival of graft” value is on record as “excellent cell survival”.
